Assay results reported in patent US20250075002A1 (BEIGENE SWITZERLAND, published 2025).
Changes are numbered by the printed parent chain. Where two headings read alike, the source gives them in different places.

T1: human CD16B (NA1) on NK92mi cells (human, UniProt O75015 17-200)
T1 construct: also called NK92mi/CD16B (NA1); NK92mi/CD16B NA1
T1 chain: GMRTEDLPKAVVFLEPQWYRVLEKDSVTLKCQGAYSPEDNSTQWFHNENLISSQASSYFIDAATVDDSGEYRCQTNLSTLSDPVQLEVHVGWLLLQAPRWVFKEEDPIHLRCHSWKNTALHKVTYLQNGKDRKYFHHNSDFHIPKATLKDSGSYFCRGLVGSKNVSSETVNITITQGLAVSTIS

T2: human CD16B (NA2) on NK92mi cells (human, UniProt O75015 17-200)
T2 construct: also called NK92mi/CD16B (NA2); NK92mi/CD16B NA2
T2 chain: T1 chain with R20S, N49S, D66N, V90I

T3: human CD16B-His6 (NA1) (human, UniProt O75015 17-200)
T3 construct: Bought ECD fragment; also called CD16B NA1; human CD16B (NA1); not shown: six-histidine tag (His6)
T3 chain: T1 chain

T4: human CD16B-His6 (NA2) (human, UniProt O75015 17-200)
T4 construct: Bought ECD fragment; also called CD16B NA2; human CD16B (NA2); not shown: six-histidine tag (His6)
T4 chain: T1 chain with R20S, N49S, D66N, V90I

B1: MUC1×CD16A multi-specific antibody BG1222P (bispecific antibody, human IgG1, kappa)
chain: EVQLVESGGGLVQPGGSLRLSCAASGRTFGSYAVGWFRQAPGKGREFVAAIRRSDATTDYVDSVKGRFTISRDNAKNTVYLQMNSLKPEDTAVYYCAASDSDYEPLGDYWGQGTLVTVSSGGGGSGGGGSEVQLVESGGGLVQPGGSLRLSCAASGRTFGSYAVGWFRQAPGKGREFVAAIRRSDATTDYVDSVKGRFTISRDNAKNTVYLQMNSLKPEDTAVYYCAASDSDYEPLGDYWGQGTLVTVSSEPKSSDKTHTCPPCPAPELLGGPSVFLFPPKPKDTLYITREPEVTCVVVDVSHEDPEVKFNWYVDGVEVHNAKTKPREEQYNSTYRVVSVLTVLHQDWLNGKEYKCKVSNKALPAPIEKTISKAKGQPREPQVYTLPPSREEMTKNQVSLWCLVKGFYPSDIAVEWESNGQPENNYKTTPPVLDSDGSFFLYSKLTVDKSRWQQGNVFSCSVMHEALHNHYTQKSLSLSPGK
heavy: EVQLLESGGGLVQPGGSLRLSCAASGFTFNDYIMSWVRQAPGKGLEWVATVSSGGDNTYYPDSVKGRFTISRDNSKNTLYLQMNSLRAEDTAVYYCTRYGGLGAMDYWGQGTLVTVSSASTKGPSVFPLAPSSKSTSGGTAALGCLVKDYFPEPVTVSWNSGALTSGVHTFPAVLQSSGLYSLSSVVTVPSSSLGTQTYICNVNHKPSNTKVDKKVEPKSCDKTHTCPPCPAPELLGGPSVFLFPPKPKDTLYITREPEVTCVVVDVSHEDPEVKFNWYVDGVEVHNAKTKPREEQYNSTYRVVSVLTVLHQDWLNGKEYKCKVSNKALPAPIEKTISKAKGQPREPQVYTLPPSREEMTKNQVSLSCAVKGFYPSDIAVEWESNGQPENNYKTTPPVLDSDGSFFLVSKLTVDKSRWQQGNVFSCSVMHEALHNHYTQKSLSLSPGK
light: DIQMTQSPSSLSASVGDRVTITCRASGNIHNYLTWYQQKPGKAPKLLIYNAKTLASGVPSRFSGSGSGTDFTLTISSLQPEDFATYYCQHFWSVPYTFGQGTKLEIKRTVAAPSVFIFPPSDEQLKSGTASVVCLLNNFYPREAKVQWKVDNALQSGNSQESVTEQDSKDSTYSLSSTLTLSKADYEKHKVYACEVTHQGLSSPVTKSFNRGEC
notes: '2+1' IgG-like format: chain 1 = tandem BG526P VHHs-hinge-Fc (knob), chain 2 = huBG219P-E39 heavy chain (hole), chain 3 = huBG219P-E39 kappa light chain; YTE mutations in both Fc; also called BG11222P
B2: BG525P (VHH-Fc) (VHH)
chain: EVQLVESGGGLVQPGGSLRLSCAASGRTFGSYAVGWFRQAPGRGREFVAAIRRSDGTTDYVDSVKGRFTISRDNAKNTVYLQMNSLKPEDTAVYYCAASDSDYEPLGDYWGQGTLVTVSSEPKSSDKTHTCPPCPAPPAAGPSVFLFPPKPKDTLMISRTPEVTCVVVDVSHEDPEVKFNWYVDGVEVHNAKTKPREEQYNSTYRVVSVLTVLHQDWLNGKEYKCKVSNKALAAPIEKTISKAKGQPREPQVYTLPPSREEMTKNQVSLTCLVKGFYPSDIAVEWESNGQPENNYKTTPPVLDSDGSFFLYSKLTVDKSRWQQGNVFSCSVMHEALHNHYTQKSLSLSPGK
notes: Humanized BG523P variant, VHH-Fc
B3: BG526P (VHH-Fc) (VHH)
chain: B2 chain with R43K, G56A
notes: as for B2
B4: BG524P (VHH-Fc) (VHH)
chain: B2 chain with R43K, F47W, G56A, T78S, K87R
notes: Humanized BG523P variant, VHH fused to the N-terminus of the human IgG1 variant Fc

Tests used:
[1] = biological target: T5, human CD16A (F158) on NK92mi cells (human, UniProt P08637 17-254); assay: flow cytometry, biotinylated antibody on NK92mi/CD16A F158 cells, w/o huIgG
T5 construct: NK92mi cells co-transduced with CD16A (F158) and FcRgamma cDNAs; also called NK92mi/CD16A F158
Target sequence in this assay (P08637 17-254 limits assumed): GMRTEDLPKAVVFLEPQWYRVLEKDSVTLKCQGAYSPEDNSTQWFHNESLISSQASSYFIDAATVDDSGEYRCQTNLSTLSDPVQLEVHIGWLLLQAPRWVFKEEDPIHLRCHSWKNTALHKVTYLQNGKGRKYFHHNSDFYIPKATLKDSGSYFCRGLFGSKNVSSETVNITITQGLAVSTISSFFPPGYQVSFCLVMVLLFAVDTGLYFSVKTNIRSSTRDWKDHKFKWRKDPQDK

[2] = biological target: T6, human CD16A (V158) on NK92mi cells (human, UniProt P08637 17-254); assay: flow cytometry, biotinylated antibody on NK92mi/CD16A V158 cells, w/o huIgG
T6 construct: NK92mi cells co-transduced with CD16A (V158) and FcRgamma cDNAs; also called NK92mi/CD16A V158; NK92mi/CD16A
T6 sequence (P08637 17-254 F176V limits assumed): as the sequence (P08637 17-254 limits assumed) above, with F160V counted along it

human CD16A-His6 (V158) [3] = biological target: T7, human CD16A-His6 (V158) (human, UniProt P08637 17-208); assay: SPR; BG1222P captured by biotin anti-human Fc VHH on neutravidin, analyte in solution
T7 construct: Bought (Sino Biologics) ECD fragment; also called CD16A 158V; human CD16A (V158); not shown: six-histidine tag (His6)
Target sequence in this assay (P08637 17-208 F176V): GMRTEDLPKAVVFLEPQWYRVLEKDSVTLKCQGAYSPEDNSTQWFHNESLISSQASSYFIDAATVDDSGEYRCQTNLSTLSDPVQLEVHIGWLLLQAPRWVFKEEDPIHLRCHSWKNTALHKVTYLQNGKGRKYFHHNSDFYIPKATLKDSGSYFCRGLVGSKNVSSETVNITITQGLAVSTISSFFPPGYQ

human CD16A-His6 (F158) [4] = biological target: T8, human CD16A-His6 (F158) (human, UniProt P08637 17-208); assay: as above
T8 construct: Bought ECD fragment; also called human CD16A (F158); not shown: six-histidine tag (His6)
Target sequence in this assay (P08637 17-208): as the sequence (P08637 17-208 F176V) above, with V160F counted along it

[5] = biological target: T5, human CD16A (F158) on NK92mi cells; assay: flow cytometry, biotinylated antibody on NK92mi/CD16A F158 cells, with 10 mg/ml huIgG1 as competitor
Target sequence in this assay (P08637 17-254 limits assumed): as the sequence (P08637 17-254 limits assumed) above

[6] = biological target: T6, human CD16A (V158) on NK92mi cells; assay: flow cytometry, biotinylated antibody on NK92mi/CD16A V158 cells, with 10 mg/ml huIgG1 as competitor
human CD16A-His6 (V158) [7] = biological target: T7, human CD16A-His6 (V158); assay: SPR; BG1222P captured by biotin anti-human Fc VHH on neutravidin; column head prints 'KD (nM)', koff/kon shows M
Target sequence in this assay (P08637 17-208 F176V): as the sequence (P08637 17-208 F176V) above

human CD16A-His6 (F158) [8] = biological target: T8, human CD16A-His6 (F158); assay: as above
Target sequence in this assay (P08637 17-208): as the sequence (P08637 17-208 F176V) above, with V160F counted along it

[9] = biological target: T5, human CD16A (F158) on NK92mi cells; assay: flow cytometry on NK92mi/CD16A 158F cells
human CD16A-His6 (V158) [10] = biological target: T7, human CD16A-His6 (V158); assay: SPR; VHH-Fc captured on anti-human Fc surface
human CD16A-His6 (F158) [11] = biological target: T8, human CD16A-His6 (F158); assay: SPR; VHH-Fc captured on anti-human Fc surface
cyno CD16-His6 [12] = biological target: T9, cyno CD16-His6 (cyno, UniProt Q8SPW2 17-208); assay: SPR; VHH-Fc captured on anti-human Fc surface
T9 construct: Bought ECD fragment; not shown: six-histidine tag (His6)
T9 sequence (Q8SPW2 17-208): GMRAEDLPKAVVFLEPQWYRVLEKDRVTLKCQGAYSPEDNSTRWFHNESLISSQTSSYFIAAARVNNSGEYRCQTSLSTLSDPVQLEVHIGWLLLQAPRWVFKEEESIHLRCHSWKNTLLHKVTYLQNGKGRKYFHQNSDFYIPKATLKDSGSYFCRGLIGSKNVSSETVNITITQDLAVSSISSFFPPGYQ

[13] = biological target: T1, human CD16B (NA1) on NK92mi cells; assay: flow cytometry on live NK92mi/CD16B NA1 cells, 300 nM VHH-Fc
[14] = biological target: T2, human CD16B (NA2) on NK92mi cells; assay: flow cytometry on live NK92mi/CD16B NA2 cells, 300 nM VHH-Fc
[15] = biological target: T5, human CD16A (F158) on NK92mi cells; assay: flow cytometry, biotinylated VHH-Fc on NK92mi/CD16A 158F cells, without human IgG1 (CB6)
human CD16A-His6 (V158) [16] = biological target: T7, human CD16A-His6 (V158); assay: SPR; VHH-Fc captured on anti-human Fc surface; row head prints 'KD (nM)', koff/kon shows M
human CD16A-His6 (F158) [17] = biological target: T8, human CD16A-His6 (F158); assay: as above
cyno CD16-His6 [18] = biological target: T9, cyno CD16-His6; assay: SPR; VHH-Fc captured on anti-human Fc surface; column head prints 'KD (nM)', koff/kon shows M
[19] = biological target: T5, human CD16A (F158) on NK92mi cells; assay: flow cytometry, biotinylated VHH-Fc on NK92mi/CD16A 158F cells, with 10 mg/ml human IgG1 CB6 as competitor
human CD16B-His6 (NA1) [20] = biological target: T3, human CD16B-His6 (NA1); assay: SPR; VHH-Fc captured on anti-human Fc surface; row head prints 'KD (nM)', taken as M like the rest of the table
human CD16B-His6 (NA2) [21] = biological target: T4, human CD16B-His6 (NA2); assay: as above
human CD16A-His6 (V158) [22] = biological target: T7, human CD16A-His6 (V158); assay: SPR; VHH-Fc captured on anti-human Fc surface; remark: listed apart in the source
human CD16A-His6 (F158) [23] = biological target: T8, human CD16A-His6 (F158); assay: SPR; VHH-Fc captured on anti-human Fc surface; remark: listed apart in the source
[24] = biological target: T5, human CD16A (F158) on NK92mi cells; assay: flow cytometry on live NK92mi/CD16A 158F cells
human CD16A-His6 (V158) [25] = biological target: T7, human CD16A-His6 (V158); assay: SPR; VHH-Fc captured on anti-human Fc surface; row head prints 'KD (nM)', text gives 0.08 nM, so M
human CD16A-His6 (F158) [26] = biological target: T8, human CD16A-His6 (F158); assay: as above
human CD16B-His6 (NA1) [27] = biological target: T3, human CD16B-His6 (NA1); assay: SPR; VHH-Fc captured on anti-human Fc surface; row head prints 'KD (nM)', taken as M like the rest of the table
human CD16B-His6 (NA2) [28] = biological target: T4, human CD16B-His6 (NA2); assay: as above

| Binder | EC50 [9] [nM] | EMAX (MFI) [9] [MFI] | koff (human CD16A-His6 (V158) [10]) [s⁻¹] | kon (human CD16A-His6 (V158) [10]) [M⁻¹ s⁻¹] | koff (human CD16A-His6 (F158) [11]) [s⁻¹] | kon (human CD16A-His6 (F158) [11]) [M⁻¹ s⁻¹] | koff (cyno CD16-His6 [12]) [s⁻¹] | kon (cyno CD16-His6 [12]) [M⁻¹ s⁻¹] | Binding signal at 300 nM (MFI) [13] [MFI] | Binding signal at 300 nM (MFI) [14] [MFI] | EC50 [15] [nM] | EMAX (MFI) [15] [MFI] | Kd (human CD16A-His6 (V158) [16]) [nM] | Kd (human CD16A-His6 (F158) [17]) [nM] | Kd (cyno CD16-His6 [18]) [nM] | EC50 [19] [nM] | EMAX (MFI) [19] [MFI] | Kd (human CD16B-His6 (NA1) [20]) [nM] | Kd (human CD16B-His6 (NA2) [21]) [nM] | also measured |
| --- | --- | --- | --- | --- | --- | --- | --- | --- | --- | --- | --- | --- | --- | --- | --- | --- | --- | --- | --- | --- |
| B1 |  |  |  |  |  |  |  |  |  |  |  |  |  |  |  |  |  |  |  | EC50 [1]: 0.97 nM; EC50 [2]: 0.35 nM; koff (human CD16A-His6 (V158) [3]): 4.22e-05 s⁻¹; kon (human CD16A-His6 (V158) [3]): 886000 M⁻¹ s⁻¹; koff (human CD16A-His6 (F158) [4]): 8.52e-05 s⁻¹; kon (human CD16A-His6 (F158) [4]): 579000 M⁻¹ s⁻¹; EC50 [5]: 7.99 nM; EC50 [6]: 33.9 nM; Kd (human CD16A-His6 (V158) [7]): 0.0477 nM; Kd (human CD16A-His6 (F158) [8]): 0.147 nM |
| B2 | 10.3 | 9710 | 0.000103 | 255000 | 0.00012 | 210000 | 0.000112 | 267000 | 733 | 75 | 1.65 | 23300 | 0.404 | 0.575 | 0.418 | 6.83 | 21900 | 2310 | 5780 |  |
| B3 | 9.1 | 9200 | 0.000133 | 289000 | 0.000148 | 230000 | 0.000147 | 301000 | 473 | 52 | 1.52 | 21600 | 0.425 | 0.64 | 0.49 | 4.95 | 19600 | 2740 | 7640 |  |
| B4 |  |  |  |  |  |  |  |  |  |  |  |  |  |  |  |  |  |  |  | koff (human CD16A-His6 (V158) [22]): 0.00011 s⁻¹; kon (human CD16A-His6 (V158) [22]): 1.35e+06 M⁻¹ s⁻¹; koff (human CD16A-His6 (F158) [23]): 0.000119 s⁻¹; kon (human CD16A-His6 (F158) [23]): 1.44e+06 M⁻¹ s⁻¹; EC50 [24]: 4.42 nM; Kd (human CD16A-His6 (V158) [25]): 0.0816 nM; Kd (human CD16A-His6 (F158) [26]): 0.0825 nM; Kd (human CD16B-His6 (NA1) [27]): 942 nM; Kd (human CD16B-His6 (NA2) [28]): 1050 nM |
